Results taken from patent publication US20180362668A1 (JIANGSU ALPHAMAB BIOPHARMACEUTICALS, published 2018).
Numbering of substitutions follows the chain as printed. Numbers in names are those of the source.

Key:
[1] = target: the molecule itself; assay: non-reducing SDS-PAGE densitometry of Protein A-purified co-transfection product; chain A:chain B vectors 1:1
From the text: The cotransfection ratio of recombinant expression vector of the chain A to that of the chain B was 1:1.

[2] = target: the molecule itself; assay: non-reducing SDS-PAGE of Protein A-purified co-transfection product; chain A:chain B vectors 1:4
From the text: (§1) The respective transient transfection products were obtained through Protein A affinity chromatography.

[3] = target: the molecule itself; assay: non-reducing SDS-PAGE densitometry of Protein A-purified co-transfection product; chain A:chain B vectors 1:4
From the text: (§2) The cotransfection ratio of recombinant expression vector of the chain A to that of the chain B was 4:1, 1:1 and 1:4.

[4] = target: the molecule itself; assay: non-reducing SDS-PAGE densitometry of Protein A-purified co-transfection product; chain A:chain B vectors 4:1
From the text: as §2

[5] = target: the molecule itself; assay: non-reducing SDS-PAGE of Protein A-purified co-transfection product; chain A:chain B vectors 4:1
From the text: as §1

[6] = target: the molecule itself; assay: non-reducing SDS-PAGE densitometry of Protein A-purified co-transfection product; chain A:chain B vectors 1:1; remark: listed apart in the source
From the text: as §2

[7] = target: the molecule itself; assay: as above; remark: listed apart in the source
[8] = target: the molecule itself; assay: non-reducing SDS-PAGE densitometry of Protein A-purified co-transfection product; chain A:chain B vectors 4:1; remark: listed apart in the source
From the text: (§3) The cotransfection ratio of recombinant expression vector of the chain A to that of the chain B was 4:1, 1:1 and 1:4. The transiently expressed culture supernatant was collected after 5-6 days of cultivation.

[9] = target: the molecule itself; assay: non-reducing SDS-PAGE densitometry of Protein A-purified co-transfection product; chain A:chain B vectors 1:4; remark: listed apart in the source
From the text: as §3

[10] = target: the molecule itself; assay: non-reducing SDS-PAGE densitometry of Protein A-purified co-transfection product; chain A:chain B vectors 1:1; remark: listed apart in the source
From the text: as §3

B1: ScFv-Fc fusion protein chain A with Y349C + T366W + K409A (Fc fusion)
chain: EVQLLESGGGVVQPGRSLRLSCIASGFTFSSYPMTWVRQAPGKGLEWVASISYDGSYKYKADSMKGRLTISRDNSKNTLYLEMNSLTAEDTAVYYCARTAFFNAYDFWGQGTLVTVSSASTKGPSVGGGGSGGGGSEIVMTQSPATLSVSPGERATLSCRASQSVRSNLAWYQQKPGQAPRLLIYAASTRATGIPARFSGSGSGTEFTLTISSLQSEDFAVYYCQQYNEWFRTSGQGTKVEIKRDKTHTCPPCPAPELLGGPSVFLFPPKPKDTLMISRTPEVTCVVVDVSHENPEVKFNWYVDGVEVHNAKTKPREEQYNSTYRVVSVLTVLHQDWLNGKEYKCKVSNKALPAPIEKTISKAKGQPREPQVCTLPPSRDELTKNQVSLWCLVKGFYPSDIAVEWESNGQPENNYKTTPPVLDSDGSFFLYSALTVDKSRWQQGNVFSCSVMHEALHNHYTQKSLSLSPGK
notes: Positions are EU index; also called combination 4 chain A
With B1 the “ScFv-Fc homodimer (%)” value [1] was 21%, the “ScFv-Fc homodimer (%)” value [2] was 4% and the “ScFv-Fc homodimer (%)” value [3] was less than 1%. The “ScFv-Fc homodimer (%)” value [4] was 46%, the “ScFv-Fc homodimer (%)” value [5] was 46% and the “ScFv-Fc homodimer (%)” value [6] was 13%. The “ScFv-Fc homodimer (%)” value [7] was 10%.

B2: ScFv-Fc fusion protein chain A with Y349C + T366W + F405K (Fc fusion)
chain: B1 chain with F429K, A433K
notes: Positions are EU index; also called combination 2 chain A
With B2 the “ScFv-Fc homodimer (%)” value [8] was 28%, the “ScFv-Fc homodimer (%)” value [1] was 17% and the “ScFv-Fc homodimer (%)” value [2] was less than 1%. For the same protein, the “ScFv-Fc homodimer (%)” value [9] was less than 1%, the “ScFv-Fc homodimer (%)” value [10] was 9% and the “ScFv-Fc homodimer (%)” value [5] was 23%. The “ScFv-Fc homodimer (%)” value [7] was 10%.

B3: ScFv-Fc fusion protein chain A with Y349C + T366W + K409E (Fc fusion)
chain: B1 chain with A433E
notes: Positions are EU index; also called combination 3 chain A
With B3 the “ScFv-Fc homodimer (%)” value [7] was 25%.

B4: ScFv-Fc fusion protein chain A with Y349C + T366W (Fc fusion)
chain: B1 chain with A433K
notes: also called combination KH chain A; combination 1 chain A
With B4 the “ScFv-Fc homodimer (%)” value [2] was 10% and the “ScFv-Fc homodimer (%)” value [5] was 52%.
